Patent publication US20190153089A1

Molecular target: the two scFvs (17-21-A01-sc01 and 17-21-A01-sc03)
Assay: competition ELISA: IC50 of TNFβ relative to IC50 of TNFα on coated scFv

B1: recombinant human TNFβ (Peprotech, Cat. No. 300-01B) (ligand, UniProt P01374 35-205, looked up)
chain: LPGVGLTPSAAQTARQHPKMHLAHSTLKPAAHLIGDPSKQNSLLWRANTDRAFLQDGFSLSNNSLLVPTSGIYFVYSQVVFSGKAYSPKATSSPLYLAHEVQLFSSQYPFHVPLLSSQKMVYPGLQEPWLHSMYHGAAFQLTQGDQLSTHTDGIPHLVLSPSTVFFGAFAL
In the case of B1, the selectivity for binding to TNFα over TNFβ is reported as greater than 20000 fold.
